Data reported in patent publication US20110305634A1.
pKd: −log10 of the molar value. Read-outs that look alike come from different tables or passages of the source.

Key:
[1] = target: Recombinant human DSG2 protein (desmoglein 2) (human) (UniProt Q14126); test: SPR, DSG2 immobilized; summary table of FIG. 13B
[2] = target: Recombinant human DSG2 protein (desmoglein 2) (human) (UniProt Q14126); test: SPR, DSG2 immobilised, Ad3-K/S/Kn injected at 10 mg/ml (so in the source)
[3] = target: Recombinant human DSG2 protein (desmoglein 2) (human) (UniProt Q14126); test: SPR, DSG2 immobilized; summary table of FIG. 13B (no unit in the table, RU from the axis of 13B)
[4] = target: Desmoglein 2 (DSG2) of human cells (human) (UniProt Q14126); test: competition of 3H-Ad3 attachment to HeLa cells after pre-incubation with the named protein; the number is the Ad3 still bound (PBS: 512)
[5] = target: Desmoglein 2 (DSG2) of human cells (human) (UniProt Q14126)
[6] = target: Desmoglein 2 (DSG2) of human cells (human) (UniProt Q14126); remark: listed apart in the source
[7] = target: Desmoglein 2 (DSG2) of human cells (human) (UniProt Q14126); remark: listed apart in the source
[8] = target: Desmoglein 2 (DSG2) of human cells (human) (UniProt Q14126); remark: listed apart in the source
[9] = target: Desmoglein 2 (DSG2) of human cells (human) (UniProt Q14126); test: cell-based or functional assay
[10] = target: Recombinant human DSG2 protein (desmoglein 2) (human) (UniProt Q14126); test: SPR, DSG2 immobilised, PtDd injected at 3 mg/ml (so in the source)
[11] = target: Recombinant human DSG2 protein (desmoglein 2) (human) (UniProt Q14126); test: SPR (BIAcore 3000), recombinant human DSG2 immobilised on CM4 chip, PtDd injected
[12] = target: Ad5/3L-GFP chimeric adenovirus vector (human adenovirus serotype 5; human adenovirus serotype 3) (UniProt P11818)

Recombinant human DSG2 protein (desmoglein 2) (human), sequence (Q14126 50-609 limits assumed): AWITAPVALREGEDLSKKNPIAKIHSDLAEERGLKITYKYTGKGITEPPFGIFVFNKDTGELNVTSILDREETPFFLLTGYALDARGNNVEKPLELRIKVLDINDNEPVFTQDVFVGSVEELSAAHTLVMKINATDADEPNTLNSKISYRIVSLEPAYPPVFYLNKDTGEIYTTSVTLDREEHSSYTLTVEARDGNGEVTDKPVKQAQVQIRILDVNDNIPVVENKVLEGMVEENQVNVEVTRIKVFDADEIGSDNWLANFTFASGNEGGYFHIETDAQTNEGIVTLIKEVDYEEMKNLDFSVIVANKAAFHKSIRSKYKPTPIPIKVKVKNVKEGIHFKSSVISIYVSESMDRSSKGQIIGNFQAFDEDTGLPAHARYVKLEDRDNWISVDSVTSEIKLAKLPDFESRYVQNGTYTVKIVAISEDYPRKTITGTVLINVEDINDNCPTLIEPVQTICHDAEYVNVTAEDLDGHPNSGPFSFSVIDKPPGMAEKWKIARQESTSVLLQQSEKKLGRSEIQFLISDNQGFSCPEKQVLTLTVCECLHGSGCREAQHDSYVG
Desmoglein 2 (DSG2) of human cells (human), sequence (Q14126 50-1118): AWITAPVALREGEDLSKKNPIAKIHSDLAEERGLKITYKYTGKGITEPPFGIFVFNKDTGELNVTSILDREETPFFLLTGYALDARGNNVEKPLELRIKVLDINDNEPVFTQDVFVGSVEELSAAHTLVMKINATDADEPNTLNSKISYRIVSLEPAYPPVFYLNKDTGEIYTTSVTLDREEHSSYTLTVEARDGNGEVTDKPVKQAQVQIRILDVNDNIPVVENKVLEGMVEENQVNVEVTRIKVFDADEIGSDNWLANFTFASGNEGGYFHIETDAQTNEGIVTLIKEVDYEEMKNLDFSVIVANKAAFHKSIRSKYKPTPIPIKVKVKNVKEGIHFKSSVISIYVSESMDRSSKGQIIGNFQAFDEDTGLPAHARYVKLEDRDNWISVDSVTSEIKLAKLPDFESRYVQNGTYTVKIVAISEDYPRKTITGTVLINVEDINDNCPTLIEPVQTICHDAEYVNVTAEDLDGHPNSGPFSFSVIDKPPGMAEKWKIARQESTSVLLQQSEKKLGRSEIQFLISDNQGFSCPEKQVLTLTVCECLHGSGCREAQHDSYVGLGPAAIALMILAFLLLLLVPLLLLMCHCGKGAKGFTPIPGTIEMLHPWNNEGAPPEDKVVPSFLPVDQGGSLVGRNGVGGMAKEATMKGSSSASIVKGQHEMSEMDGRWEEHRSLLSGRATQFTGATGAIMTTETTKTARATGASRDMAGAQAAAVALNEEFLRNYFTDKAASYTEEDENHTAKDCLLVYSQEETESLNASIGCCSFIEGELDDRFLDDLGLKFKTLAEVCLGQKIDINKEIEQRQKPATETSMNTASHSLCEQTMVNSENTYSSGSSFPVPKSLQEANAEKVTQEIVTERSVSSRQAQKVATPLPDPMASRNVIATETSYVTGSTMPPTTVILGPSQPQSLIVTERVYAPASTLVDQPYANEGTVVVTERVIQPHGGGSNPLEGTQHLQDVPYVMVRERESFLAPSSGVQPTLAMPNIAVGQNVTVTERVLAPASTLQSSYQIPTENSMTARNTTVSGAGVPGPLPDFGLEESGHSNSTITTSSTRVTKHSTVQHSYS
Recombinant human DSG2 protein (desmoglein 2), sequence (Q14126 50-609 limits assumed): as the sequence (Q14126 50-609 limits assumed) above

Substance: Ad3-K/S/Kn, junction opener 1 (JO-1) (ligand; other documents disagree on this pair)
- % of remaining binding after 150s [1]: 85.9%
- SPR response [2]: 100 RU
- Binding at the end of association [3]: 113 RU
- Remaining binding after 150s dissociation [3]: 96.9 RU

Substance: Recombinant Ad3 base dodecahedra (BsDd)
- Bound 3H-Ad3 VP/cell (with this competitor) [4]: 556 VP/cell

Substance: Recombinant Ad3 penton-dodecahedra (PtDd)
- IC50 (read off the curve), Ad3-GFP infection of HeLa cells (% of GFP+ cells) [5]: 0.7 µg/mL
- IC50 (read off the curve), Ad3-GFP transduction of HeLa cells (GFP MFI) [6]: 0.2 µg/mL
- IC50 (read off the curve), Ad5/3L-GFP transduction of HeLa cells (GFP MFI) [6]: 0.5 µg/mL
- IC50 (read off the curve), Ad5/3S-GFP transduction of HeLa cells (GFP MFI) [6]: 0.2 µg/mL
- IC50 (read off the curve), Ad3-GFP transduction of HeLa cells (% of GFP+ cells) [7]: 1 µg/mL
- IC50 (read off the curve), Ad3-GFP transduction of HeLa cells (% of GFP+ cells) [8]: 2 µg/mL
- Herceptin cytotoxicity on BT474 cells (WST-1 viability) [9]: 2 fold
- % of remaining binding after 150s [1]: 98%
- SPR response [10]: 100 RU
- pKd [11]: 8.60
- Binding at the end of association [3]: 133 RU
- Remaining binding after 150s dissociation [3]: 130 RU
- Bound 3H-Ad3 VP/cell (with this competitor) [4]: 12 VP/cell

Substance: Recombinant human DSG2 protein (desmoglein 2) (from UniProt Q14126 50-609) (receptor)
- IC50 (read off the curve), Ad5/3L-GFP transduction of HeLa cells (GFP MFI) [12]: 1 µg/mL
